Reference: paper PMC7496778, “Characterizing the original anti‐C5 function‐blocking antibody, BB5.1, for species specificity, mode of action and interactions with C5” (Immunology, 2020)

Key:
[1] = biological target: T1, mouse complement component 5 (C5) (Mus musculus, strain , UniProt P06684); test: SPR; Biacore T200; BB5.1 immobilised on CM5 chip by amine coupling (~200 RU); mouse C5 flowed at 52-4 nM in HBS-EP (10 mM HEPES, 150 mM NaCl, 0.05% surfactant P20), 30 µl/min, 25°; Langmuir 1:1 binding model; settings: both partners purified
T1 construct: complement C5 beta chain (80 000 MW), mouse, cut from the C5 precursor; complement C5 alpha chain (115 000 MW), mouse, cut from the C5 precursor; also called mouse C5; intact C5; source: purified in-house

[2] = biological target: T2, human complement component 5 (C5) (Homo sapiens, UniProt P01031); test: ELISA; direct ELISA; plates coated with mouse or human C5 (0.5 µg/ml, bicarbonate buffer pH 9.6); BB5.1 intact mAb 5-0 µg/ml or Fab 20-0 µg/ml in 0.2% BSA-PBS, 1 hr at 37°; HRP-labelled secondary antibody; settings: both partners purified
T2 construct: complement C5 beta chain, human, cut from the C5 precursor; complement C5 alpha chain, human, cut from the C5 precursor; also called human C5; source: purified in-house
T2 sequence (P01031 whole entry, looked up): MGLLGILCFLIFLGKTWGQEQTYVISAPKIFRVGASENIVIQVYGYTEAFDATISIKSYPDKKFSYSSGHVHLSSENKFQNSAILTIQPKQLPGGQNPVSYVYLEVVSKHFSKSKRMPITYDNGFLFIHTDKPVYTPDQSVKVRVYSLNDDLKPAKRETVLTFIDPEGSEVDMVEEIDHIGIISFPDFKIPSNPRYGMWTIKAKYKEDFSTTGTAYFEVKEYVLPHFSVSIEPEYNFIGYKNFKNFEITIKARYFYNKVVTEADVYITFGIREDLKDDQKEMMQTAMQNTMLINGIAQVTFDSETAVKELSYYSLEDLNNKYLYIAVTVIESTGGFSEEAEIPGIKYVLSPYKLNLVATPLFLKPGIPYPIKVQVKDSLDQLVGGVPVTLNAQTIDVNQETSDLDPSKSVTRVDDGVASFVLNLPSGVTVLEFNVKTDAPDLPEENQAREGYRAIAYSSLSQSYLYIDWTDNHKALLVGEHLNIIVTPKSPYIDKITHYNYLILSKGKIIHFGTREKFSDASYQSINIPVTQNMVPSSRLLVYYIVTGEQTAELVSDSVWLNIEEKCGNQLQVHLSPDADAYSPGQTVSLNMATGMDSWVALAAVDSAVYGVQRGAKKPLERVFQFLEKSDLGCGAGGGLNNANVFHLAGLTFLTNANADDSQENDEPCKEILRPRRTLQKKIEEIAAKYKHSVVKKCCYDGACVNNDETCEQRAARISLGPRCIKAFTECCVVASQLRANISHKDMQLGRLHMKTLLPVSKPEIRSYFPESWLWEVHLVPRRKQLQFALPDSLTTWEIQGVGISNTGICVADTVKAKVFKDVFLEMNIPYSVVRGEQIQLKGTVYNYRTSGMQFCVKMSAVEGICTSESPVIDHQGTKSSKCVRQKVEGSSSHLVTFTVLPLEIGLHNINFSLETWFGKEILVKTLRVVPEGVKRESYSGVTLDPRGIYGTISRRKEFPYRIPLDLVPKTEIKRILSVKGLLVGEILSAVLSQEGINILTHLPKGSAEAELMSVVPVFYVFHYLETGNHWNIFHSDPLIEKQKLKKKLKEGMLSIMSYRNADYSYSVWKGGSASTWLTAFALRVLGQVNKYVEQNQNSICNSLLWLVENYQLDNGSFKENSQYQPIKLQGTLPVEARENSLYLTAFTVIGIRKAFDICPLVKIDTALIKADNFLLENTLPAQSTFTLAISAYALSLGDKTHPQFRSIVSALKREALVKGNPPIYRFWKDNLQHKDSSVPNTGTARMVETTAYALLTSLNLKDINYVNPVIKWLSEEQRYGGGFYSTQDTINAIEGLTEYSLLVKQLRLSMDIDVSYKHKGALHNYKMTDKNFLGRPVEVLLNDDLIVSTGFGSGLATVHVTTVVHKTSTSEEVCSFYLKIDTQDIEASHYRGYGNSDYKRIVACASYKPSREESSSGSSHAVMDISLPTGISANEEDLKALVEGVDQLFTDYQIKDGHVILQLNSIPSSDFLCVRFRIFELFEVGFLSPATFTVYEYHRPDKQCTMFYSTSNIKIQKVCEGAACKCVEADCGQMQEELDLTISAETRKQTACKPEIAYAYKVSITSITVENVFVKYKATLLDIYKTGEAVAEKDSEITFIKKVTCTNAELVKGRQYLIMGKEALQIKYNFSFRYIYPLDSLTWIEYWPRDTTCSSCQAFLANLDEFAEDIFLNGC

Kd [1] | koff [1] | binding result [2] | Binder
8.1 nM | 0.0013 s⁻¹ | no binding (tested: 5 µg/ml) | BB5.1 anti-C5 monoclonal antibody (intact mAb) (antibody, V domains shown, full variable heavy domain; full variable light domain; raised in C5-deficient mice; also called BB5.1 mAb; full-length BB5.1; source: BB5.1 hybridoma (re-cloned), purified on HiTrap Protein G sepharose) VH: QVQLQQPGAELVRPGTSVKLSCKASGYTFTSSWMHWVKQRPGQGLEWIGVIDPSDSYTNYNQKFKGKATLTVDTSSSTAYMQLSSLTSEDSAVYYCARGGGSSYNRYFDVWGTGTTVTVSS VL: NIMMTQSPSSLAVSAGEKVTMSCKSSQSVLYSSNQKNYLAWYQQKPGQSPKLLIYWASTRESGVPDRFTGSGSGTDFTLTISSVQAEDLAVYYCHQYLSSRTFGGGTKLEIK
 |  | no binding (tested: 20 µg/ml) | BB5.1 Fab fragments (Fab, V domains shown, as the VH of m1; as the VL of m1; Fab of a mouse IgG1, kappa antibody; also called BB5.1-derived Fab fragment; source: immobilized ficin digestion of purified BB5.1 mAb; Fc-containing proteins removed on Protein A or G column) VH: QVQLQQPGAELVRPGTSVKLSCKASGYTFTSSWMHWVKQRPGQGLEWIGVIDPSDSYTNYNQKFKGKATLTVDTSSSTAYMQLSSLTSEDSAVYYCARGGGSSYNRYFDVWGTGTTVTVSS VL: NIMMTQSPSSLAVSAGEKVTMSCKSSQSVLYSSNQKNYLAWYQQKPGQSPKLLIYWASTRESGVPDRFTGSGSGTDFTLTISSVQAEDLAVYYCHQYLSSRTFGGGTKLEIK
